Data reported in article PMC11853027.

Molecular target: LS174T cells
Test: cell-binding assay, cell-bound Hoc detected by Western blot
Details: After 1.5 h of incubation; parent: est. 1.0; read off a plot

Row | Substance | other: Ratio of Hoc/MUC2
1 | Hoc protein of phage ΦPNJ-9 (wild type, recombinant) L184 | 0.5
2 | Hoc protein of phage ΦPNJ-9 (wild type, recombinant) T185 | 0.47
3 | Hoc protein of phage ΦPNJ-9 (wild type, recombinant) S183 | 0.53
